Experiments:
Test in all cases: EMSA
Details in all cases: EMSA: 100 pM RNA, 10 mM Tris, 100 mM NaCl, 0.1 mM EDTA, 0.01 mg/mL tRNA, 50 ug/mL heparin, 0.01% IGEPAL CA630, room temperature, 3 h; pH not stated
IMP2 KH4 VL MUT (KH34) = IMP2 KH4 VL MUT (KH34) (UniProt Q9Y6M1)
IMP2 KH3 VL MUT (KH34) = IMP2 KH3 VL MUT (KH34) (UniProt Q9Y6M1)
IMP2 KH34 double VL MUT = IMP2 KH34 double VL MUT (UniProt Q9Y6M1)
IMP2 KH34 double VL MUT, sequence (Q9Y6M1 whole entry): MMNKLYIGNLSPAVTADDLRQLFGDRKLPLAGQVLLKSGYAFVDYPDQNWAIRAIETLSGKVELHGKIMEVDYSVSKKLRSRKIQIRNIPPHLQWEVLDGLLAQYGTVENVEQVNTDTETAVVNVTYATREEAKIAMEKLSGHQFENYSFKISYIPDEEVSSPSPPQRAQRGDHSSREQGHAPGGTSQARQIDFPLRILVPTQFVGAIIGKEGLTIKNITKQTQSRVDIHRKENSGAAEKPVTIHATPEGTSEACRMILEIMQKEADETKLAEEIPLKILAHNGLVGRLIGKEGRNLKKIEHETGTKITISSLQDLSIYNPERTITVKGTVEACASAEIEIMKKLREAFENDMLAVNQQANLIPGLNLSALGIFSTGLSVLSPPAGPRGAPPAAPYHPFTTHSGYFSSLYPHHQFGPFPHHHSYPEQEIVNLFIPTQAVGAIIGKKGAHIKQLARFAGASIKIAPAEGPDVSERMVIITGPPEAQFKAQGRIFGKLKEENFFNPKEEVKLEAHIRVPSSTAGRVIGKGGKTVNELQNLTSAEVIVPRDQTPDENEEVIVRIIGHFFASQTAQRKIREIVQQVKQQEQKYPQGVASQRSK

IMP2 KH4 VL MUT (KH34), sequence (Q9Y6M1 whole entry): as above
IMP2 KH3 VL MUT (KH34), sequence (Q9Y6M1 425-581): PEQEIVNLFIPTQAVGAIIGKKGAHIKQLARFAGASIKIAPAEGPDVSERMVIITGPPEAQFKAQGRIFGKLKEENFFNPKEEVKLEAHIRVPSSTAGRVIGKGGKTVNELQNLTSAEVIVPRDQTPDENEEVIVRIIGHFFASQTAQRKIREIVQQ

ACCGGACUGUUACCAACACCCACACCCC [C28 beta-actin zipcode WT]
Kd (IMP2 KH4 VL MUT (KH34)): 346 nM | Kd (IMP2 KH3 VL MUT (KH34)): 7.3 nM | Kd (IMP2 KH34 double VL MUT): 26.5 nM
